Measured values reported in the supplement of paper PMC12764529.
± gives the half width of the 95% confidence interval.

What was measured:
[1] = folding stability dG unfold from chymotrypsin proteolysis; higher = more stable
Outline: (§1)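 Digests were run with trypsin and chymotrypsin at 11 concentrations in threefold dilutions, plus a no-protease condition, on designed mini-proteins in a PA-tagged cDNA display construct. The mini-proteins were under 80 residues, had no cysteine, and were kept only when AlphaFold2 dimer inter-PAE was above 15. After sequencing, Bayesian fitting of the counts gave K50, from which unfolding free energy was derived against a sequence-predicted unfolded-state K50 and a shared folded-state K50, per protease or combined.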

[2] = folding stability dG unfold (combined trypsin and chymotrypsin); higher = more stable
Outline: as §1

[3] = folding stability dG unfold from trypsin proteolysis; higher = more stable
Outline: as §1

Sequence | folding stability dG unfold [1] [kcal/mol] | folding stability dG unfold [2] [kcal/mol] | folding stability dG unfold [3] [kcal/mol]
SAGGSAGGSAEELAKELAKKLPPGAKFKIEVKTEYYKTKDGKTVKKKVEIKIYNEDGEEVTSAGGSAGGSAG [r3_247_TrROS_Hall] | 1.1 ± 0.51 | 0.679 ± 0.32 | -0.0104 ± 0.19
SAGGSAGGSAGGPEVNIEVERYRLPNGGYLLVIRTSDGEEIVIEFDSPEEALKAAKEIAKSAGGSAGGSAGG [r11_955_TrMRF] | 2.04 ± 0.056 | 1.93 ± 0.077 | 1.73 ± 0.035
SAGMKVIKVKGEEELEKALREEAEKKGLSEEEMKEFIEEAKKRTKIEKEGDEYYVTIEPEGKPVPGNKLSAG [r5_717_JUSTAS] | -0.879 ± 0.52 | 0.474 ± 0.37 | 1.04 ± 0.088
SAGGSAGGRFRIKFKNGPVIEIDPNEPTIRFPDGSRRFPLNGDDAEEALEEFLSNGMKITEIEPSAGGSAGG [r6_340_TrROS] | 0.99 ± 0.14 | 0.641 ± 0.16 | -0.149 ± 0.2
SAGGSMLSTEPKETDDEIKVTKIYYPEEPIEVTLTTDPDTDLVTATSPSSTATIDAKTGKTTTTPSSSSAGG [r13_416_JUSTAS] | 0.876 ± 0.039 | 0.545 ± 0.14 | -0.285 ± 0.1
SAMNLKTFKIEVPDGKIFTIPPNYKAEIVEYDPEKGVVTIKLTAYETNPLKEVEKKEFSFKFKFLEEFPSAG [r14_927_TrMRF] | 1.62 ± 0.082 | 1.46 ± 0.086 | 1.181 ± 0.011
SAGGSAGGSPSVPPEWKVEIVEVTVHPDGSTVTAVIRFEDGSTVTVNSPEALARLVEGGNVVNSAGGSAGGS [r12_455_TrMRF] | 1.62 ± 0.11 | 1.51 ± 0.14 | 1.12 ± 0.047
SAGGSAGGSKKKKKKIKIKIVVNEDELAKKLGLSKEEVRKLAKELADELKKKGYEVEIEIIPPSAGGSAGGS [r12_576_TrROS_Hall] | 3.29 ± 0.054 | 2.89 ± 0.054 | 1.87 ± 0.049
SAGGSAGGSAGGSVTVERYPDGKVTTTTTDPTRPVTTVTLAEVEPGPGKVLTETVTPVPSAGGSAGGSAGGS [r10_613_JUSTAS] | 1.3 ± 0.14 | 1.12 ± 0.1 | 0.835 ± 0.057
SAGGSAGGSAGPPDIEVNYYRYEGYYRVNISFPNNRPIEIMMKGPGMPAEDFVKKLLDQLSAGGSAGGSAGG [r11_313_TrROS] | 2.35 ± 0.059 | 2.1 ± 0.14 | 1.84 ± 0.1
SAGGSAGGSSFEITVYHPDKGKPFKAKVDIEPELVDGDGKPVLVYKAKITIGDKPFEAVFVLNSAGGSAGGS [r20_39_TrMRF] | 2.89 ± 0.043 | 2.63 ± 0.14 | 2.14 ± 0.08
SAGEPIRIKIMIMNPDGKLRPIVEIPIPPDDIKEIEIKDDSIEIELPGDGKTLMFRINNYPIMIQIEDSAGG [r19_408_TrROS] | 3.2 ± 0.036 | 2.77 ± 0.11 | 2.06 ± 0.029
SAGGSAGGSNGKKIEIDIFWPRPMAETIVKELWKGSNIKPIKIKVIPMPEDDPKYKEFMDKLKSAGGSAGGS [r12_649_TrROS] | 0.188 ± 0.12 | 0.247 ± 0.12 | 0.109 ± 0.079
SAGGSAGGSAGKIKITEIHFMPNGMVVVEIEFEDPDGETFNLTVVFRFDPNGKIRDIHIMSAGGSAGGSAGG [r11_709_TrROS] | 4.35 ± 0.07 | 4.22 ± 0.17 | 3.35 ± 0.15
SAGGITVEVEYERTEGGYYRVTVTLRDPDGNPIEIEYPMPPGDPGMTQDEMKDKAVEWALKIAQELNSAGGS [r8_123_TrROS] | 3.971 ± 0.031 | 3.96 ± 0.088 | 3.94 ± 0.12
SAGGKTVTITVPEGMTEEEVKALAEKLIEEGFKEVTVTVTRTKTETLPNGKTKTVTETKTYVFKLPPSAGGS [r16_44_TrROS_Hall] | 4.062 ± 0.036 | 3.88 ± 0.088 | 3.45 ± 0.092
SALPPGAPPKPERLVLTLTVSEEEVKKGDLEKVRRLVEELVEALREAGFEVKEVEVVEEDGKLTVRIVLDSA [r9_75_TrROS_Hall] | 2.68 ± 0.17 | 2.92 ± 0.36 | 3.04 ± 0.26
SASSITVSYDESTGVTTVTVDGGGFTFTVPNPEGKTLTVTVTQEALPDGTTRVTVTITFPDGSTTTVVVSAG [r14_675_JUSTAS] | 5 ± 0.18 | 5.06 ± 0.17 | 4.17 ± 0.2
SAGKIKIPPGQEIWIIVNVEWQPDPDNGEPRYTVTVMKIKIKADPNGGLKIESIETKIVPAEDLKDNGLSAG [r5_340_TrROS] | 3.6 ± 0.078 | 3.06 ± 0.14 | 1.84 ± 0.036
SAGGSAGGSAGGSEKKITVYKDKNGNYLVVIEKGDKPIVIPFPKGASLKEALDIIDKLDSAGGSAGGSAGGS [r4_7_TrMRF] | 2.64 ± 0.051 | 2.41 ± 0.14 | 1.95 ± 0.095
SATGAIVLEKPVEFNIPDKNGKPVFKSKVLIFVDPGKDKVYALIYDPKTGKKLIVEFNSPEEVKKFFESSAG [r14_508_TrMRF] | 1.54 ± 0.12 | 1.65 ± 0.077 | 1.65 ± 0.031

Sequence | folding stability dG unfold [1] [kcal/mol] | folding stability dG unfold [2] [kcal/mol] | folding stability dG unfold [3] [kcal/mol]
SAGGSAGGSAGGSMYTAEPSVVLLPDGTLRTVTRYTFPDGSVTSETATSPLSPDDPALLSAGGSAGGSAGGS [r4_144_JUSTAS] | 0.949 ± 0.099 | 0.637 ± 0.087 | -0.0533 ± 0.1
SLSITVPPDKGLVLVNEGLKDGKVKLFLDDKVEEVEVPAGETLVFEVPPDYKGFKLEVIGDDGVVLSVDGSA [r9_143_TrMRF] | 0.322 ± 0.29 | 0.599 ± 0.22 | 0.627 ± 0.13
SAGGSAGGSAGGSGMVEVVSPDLSPEELKERIRKELGDPSVKVEVTTLSDGTQLARVPASAGGSAGGSAGGS [r4_408_JUSTAS] | -0.0859 ± 0.061 | -0.365 ± 0.12 | -1.74 ± 0.72
SAGGMSLSDPRDIRKAAKLKEIEILVKELNDKGIEVKLDEISFIEGTEEITAIVTFPDGTKYEITINSAGGS [r8_277_TrMRF] | 1.02 ± 0.018 | 1.42 ± 0.075 | 1.85 ± 0.042
SAGGMLKIKVELFYPDGSTRTLPVPEEIQKEIVEALKKGEKIPEKPKKELEDIAKKEGYTIKIIELLSAGGS [r8_159_JUSTAS] | 1.41 ± 0.11 | 1.3 ± 0.18 | 0.751 ± 0.051
SAGGSAGGMIRFDTPEEVEAALKALRAKLPPGATLVIEIEVDGKLVRVEFKDGKITKVEVRELPSAGGSAGG [r6_288_TrROS_Hall] | 3.67 ± 0.12 | 3.57 ± 0.2 | 3.02 ± 0.16
SAGGAFAVVDAGDKVITITVYNPDGELVAPAEIPVLDPETGESDALNIPLEELEKLAGVPIELEPAGSAGGS [r16_778_TrMRF] | 1 ± 0.025 | 1.03 ± 0.1 | 0.977 ± 0.059
SGMLLTVATKTEESELPDGGKKKVTTTTVELSGPHSVTYTPVTTLAPDGTVPASTTTVYDTVSGETTTAPSA [r9_641_JUSTAS] | -0.2 ± 0.058 | 0.145 ± 0.074 | 0.259 ± 0.032
SVTITKDGNKITVTLSVNGPFTLQVNKESSTSSFSVPADESATLTIDVPNTTYKVVVEKPGQPVSTYDLLSA [r9_411_JUSTAS] | 2.08 ± 0.17 | 1.97 ± 0.23 | 1.8 ± 0.12
SAGGSAGGSAGGPPDEVVTTVTEIELPDDKVVTVTTTTVPGAGTTTTTVTTKPLTKPGVSSAGGSAGGSAGG [r11_695_JUSTAS] | 1.12 ± 0.029 | 1.82 ± 0.047 | 2.5 ± 0.086
SAGGSAGGSAGGLGLDLPVFPVKTTTSSSTVPLPNGQTVTVTTTTTTFPGSSSTTTTTTGSAGGSAGGSAGG [r17_59_JUSTAS] | 1.46 ± 0.037 | 1.31 ± 0.037 | 1.02 ± 0.031
SAGGSAGGSAGGSKYIVIRIPGSVDELIDYLRDSGFKIKIESVEYDPPNGEFYVVFKIKSAGGSAGGSAGGS [r4_315_TrROS] | 3.063 ± 0.025 | 2.87 ± 0.052 | 2.53 ± 0.073
SAGGSAGGSAYWRIKIFYPNNGREVTIHVPGSADDILDEAKPQFGYPPDNIKKIKIEPMDNSAGGSAGGSAG [r3_79_TrROS] | 0.783 ± 0.35 | 0.432 ± 0.21 | -0.409 ± 0.33
SAGGSAGGSAGGNWYIIIYFPPGRKRIIPFDSPEEMREEMKENGMPIKIMPKEDAEKLLSAGGSAGGSAGGS [r10_66_TrROS] | 1.25 ± 0.052 | 1.14 ± 0.084 | 0.848 ± 0.078
SEAEAVTFPVPNPEDGELVADLAVARNPETGEWTVRLEHEDGKTVEVTFPEDEELPVDGLPPGLRATFTGSA [r9_1150_TrMRF] | -0.916 ± 0.7 | -0.401 ± 0.13 | -0.195 ± 0.12
SPPNFRMEQEEIEIEIRFPDGWRVSVEIEIHRMRFPDGDEMLHIDIKVEADPNNPGMRKLAKNLVEEIINSA [r9_908_TrROS] | 2.14 ± 0.21 | 1.85 ± 0.41 | 1.24 ± 0.21
SAGGQRIEFEVQPNPENGMIFIKVKFQQMEPDPNGNKETREITHTVMVKLPPGAKPGEKIEIDIPPNMSAGG [r13_450_TrROS] | 0.828 ± 0.25 | 1.1 ± 0.39 | 0.859 ± 0.046
SAGGGVMIAIKKIDPKNGKLEIEIWMPEGFEDPDQRKEMLEMADSLADRLQELHGIPVKVTIHPFPNSAGGS [r16_304_TrROS] | 2.27 ± 0.076 | 2.31 ± 0.12 | 2.31 ± 0.083
SAGGSAGGSAGGMPIKVEEYELPNGEKILKEISPEGVVKVYKVDPVNGKKEVIEVIPINKSAGGSAGGSAGG [r7_898_JUSTAS] | 1.1 ± 0.073 | 1.01 ± 0.19 | 0.446 ± 0.094
SAGGSAIPPDNVKEEREITDPDDDTKIKVWRYPNDGRYWVQVYNKKGEPKWKQLGPMPANQAEDLISAGGSA [r15_295_TrROS] | -0.31 ± 0.38 | -0.057 ± 0.23 | 0.0985 ± 0.35
SAKDIEIEMERTNGYYQMTIKLPGKGYEISVWMPGDQYEISVQPPKNPDEVETIPFTVPEIKDALIDALSAG [r14_716_TrROS] | 1.26 ± 0.16 | 1.18 ± 0.3 | 0.519 ± 0.12
